This is an account of results in US20130231265A1.

Series [1] has as its system Syk biosensor peptide GGDEEDYEEPDEPGGKbiotinGG-betaNpa-RKKRRQRRR (SAStide biosensor).
Series [2] deals with Syk biosensor peptide …biotinGG-betaNpa-… (SAStide biosensor). Kind of series: cell-based or functional assay.
Series [3] has as its system T1, Abl artificial substrate peptide, GGDEDDNDEVAYQAPFEDGGKbiotinGG.
T1 sequence: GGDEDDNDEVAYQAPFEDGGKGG

The test system of series [4] is T2, Src family artificial substrate peptide A, GGEEDEDIYEELDEPGGKbiotinGG.
T2 sequence: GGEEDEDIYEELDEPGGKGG

Recombinant Abl kinase (Millipore), sequence (P00519 whole entry): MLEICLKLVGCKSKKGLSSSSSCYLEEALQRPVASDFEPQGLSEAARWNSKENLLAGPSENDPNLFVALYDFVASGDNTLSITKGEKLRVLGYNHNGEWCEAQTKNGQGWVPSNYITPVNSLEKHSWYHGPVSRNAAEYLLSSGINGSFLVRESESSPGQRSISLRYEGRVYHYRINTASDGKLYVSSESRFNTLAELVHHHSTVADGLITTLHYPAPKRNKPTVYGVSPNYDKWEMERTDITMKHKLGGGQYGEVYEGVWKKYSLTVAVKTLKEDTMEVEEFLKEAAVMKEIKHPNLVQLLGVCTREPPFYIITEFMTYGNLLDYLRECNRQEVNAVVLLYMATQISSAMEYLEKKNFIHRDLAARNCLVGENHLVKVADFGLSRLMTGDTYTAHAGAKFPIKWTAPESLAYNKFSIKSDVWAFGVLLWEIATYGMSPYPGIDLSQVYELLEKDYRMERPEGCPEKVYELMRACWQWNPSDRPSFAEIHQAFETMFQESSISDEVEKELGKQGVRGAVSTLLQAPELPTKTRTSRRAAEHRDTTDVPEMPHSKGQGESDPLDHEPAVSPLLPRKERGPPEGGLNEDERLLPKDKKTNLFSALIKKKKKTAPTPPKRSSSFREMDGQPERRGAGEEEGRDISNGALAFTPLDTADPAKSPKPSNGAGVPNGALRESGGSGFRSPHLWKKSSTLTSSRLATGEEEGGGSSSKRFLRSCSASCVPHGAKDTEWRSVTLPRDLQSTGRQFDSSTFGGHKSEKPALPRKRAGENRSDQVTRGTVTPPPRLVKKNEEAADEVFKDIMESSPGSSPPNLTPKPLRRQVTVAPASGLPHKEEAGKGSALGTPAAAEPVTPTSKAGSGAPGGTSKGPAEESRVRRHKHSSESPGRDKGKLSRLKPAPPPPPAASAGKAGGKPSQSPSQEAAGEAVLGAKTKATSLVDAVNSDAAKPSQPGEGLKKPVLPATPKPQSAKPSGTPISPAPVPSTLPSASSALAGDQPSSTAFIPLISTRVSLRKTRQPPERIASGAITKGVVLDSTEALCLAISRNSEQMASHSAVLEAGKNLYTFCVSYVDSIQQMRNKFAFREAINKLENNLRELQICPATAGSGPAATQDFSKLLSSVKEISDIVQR

With “EGFP-conjugated Syk (Syk-EGFP) isolated from DT40 chicken B cells stably expressing Syk-EGFP”, in series [1], the “in vitro kinase assay, ELISA-based antiphosphotyrosine (4G10) chemifluorescence signal over time” value is “A substantial increase in signal over time was observed, demonstrating that SAStide was phosphorylated by Syk in vitro” and the “in vitro kinase assay, time-resolved Tb3+ luminescence, percent phosphorylation against time” value was “These data show that enzymatic phosphorylation of SAStide can be detected using time-resolved Tb^3+ luminescence”.

In series [2], “EGFP-conjugated Syk (Syk-EGFP) isolated from DT40 chicken B cells stably expressing Syk-EGFP (enzyme)” had a phosphorylation of the biosensor peptide in Syk(-/-) DT40 cells reconstituted with Syk-EGFP, BCR stimulation by IgM, over unstimulated cells of 2 fold and a phosphorylation of the biosensor peptide in Syk(-/-) DT40 cells reconstituted with Syk-EGFP, H2O2 with or without BCR stimulation, over control of 12 fold.

Take Recombinant Abl kinase (Millipore): the “in vitro kinase assay, ELISA-based antiphosphotyrosine (4G10) chemifluorescence signal” value in series [1] is “none of which produced any significant signal for phosphopeptide”. For the same substance, the “in vitro kinase assay, terbium-sensitized luminescence, confirmed by ELISA-based Amplex Red chemifluorescent assay” value in series [3] is listed as “ABStide was specific for Abl against the Src-family kinase, Hck”.

Regarding Recombinant Hck, the “in vitro kinase assay, terbium-sensitized luminescence, confirmed by ELISA-based Amplex Red chemifluorescent assay” value in series [3] is given as “ABStide was specific for Abl against the Src-family kinase, Hck”. Moreover, the “in vitro kinase assay, time-resolved Tb3+ luminescence, percent phosphorylation against time” value in series [4] is listed as “These data show that enzymatic phosphorylation of SFAStideA can be detected using time-resolved Tb^3+ luminescence”.

Regarding Recombinant Lyn kinase (Millipore), the “in vitro kinase assay, ELISA-based antiphosphotyrosine (4G10) chemifluorescence signal” value in series [1] is “none of which produced any significant signal for phosphopeptide”.

As to Recombinant Src kinase (Millipore), the “in vitro kinase assay, ELISA-based antiphosphotyrosine (4G10) chemifluorescence signal” value in series [1] is “none of which produced any significant signal for phosphopeptide”.
